Numbering of substitutions follows the chain as printed. Read-outs that look alike come from different tables or passages of the source. One block for each binder: values may come before it.
Tests used:
[1] = molecular target: T1, recombinant human sclerostin (human, UniProt Q9BQB4 24-213); test: direct bind ELISA
T1 construct: biotinylated in the ELISAs; also called hu sclerostin; hu scl
T1 sequence: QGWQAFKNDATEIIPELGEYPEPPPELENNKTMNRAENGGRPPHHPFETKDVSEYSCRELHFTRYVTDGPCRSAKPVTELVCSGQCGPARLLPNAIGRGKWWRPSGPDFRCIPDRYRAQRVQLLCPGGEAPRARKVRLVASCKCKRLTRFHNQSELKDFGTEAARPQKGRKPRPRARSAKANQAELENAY

[2] = molecular target: T1, recombinant human sclerostin; test: capture ELISA, biotin-sclerostin
[3] = molecular target: T2, recombinant cynomolgus monkey sclerostin (cynomolgus monkey); test: SPR
T2 construct: also called cyno sclerostin; Cyno sclerostin
Description: (§1) Approximately 10,000 RU (or 3000 RU when CM3 chip was used) of goat anti-mouse or anti-human IgG (Fcγ) fragment specific polyclonal antibody (Pierce Biotechnology Inc, Rockford, Ill.) diluted in 10 mM sodium acetate (pH 4.5) was directly immobilized across a CM5 (or CM3) research grade biosensor chip using a standard amine coupling kit according to manufacturer's instructions and procedures at 15 μg/ml. Unreacted moieties on the biosensor surface were blocked with ethanolamine. Modified carboxymethyl dextran surface in flowcells 2, 3 and 4 were used as a reaction surface. Modified carboxymethyl dextran in flow cell 1 was used as the reference surface. Biaevaluation T100 software version 2.0.2, GE Healthcare Life Sciences was used to simultaneously fit association and dissociation phases of all injections (using 1:1 fit analysis with local Rmax). Purified antibodies were diluted in running buffer for capture across goat anti-mouse or anti-human IgG specific reaction surfaces. Antibodies to be captured as a ligand (1 μg/ml) were injected over reaction matrices at a flow rate of 10 μl/minute. The association and dissociation rate constants, kon (unit M-1 s-1) and koff (unit s-1) were determined under a continuous flow rate of 50 μl/minute. […] At the end of each cycle the surfaces were regenerated with 10 s injection of 50 mM NaOH or/and by 10 s injection of 10 mM Glycine pH1.5 at a flow rate of 100 μl/min. Instrument appropriate Biaevaluation software, GE Healthcare Life Sciences was used to simultaneously fit association and dissociation constants as well as KD (using 1:1 global fit analysis with local Rₘₐₓ). Binding was recorded as a function of time and kinetic rate constants are calculated. In this assay, on-rates as fast as 10⁷ M⁻¹ s⁻¹ and off-rates as slow as 10⁻⁶ s⁻¹ can be measured.

[4] = molecular target: T1, recombinant human sclerostin; test: SPR
Description: as §1

[5] = molecular target: T3, recombinant mouse sclerostin (mouse, UniProt Q99P68 24-211); test: SPR
T3 construct: also called ms sclerostin; murine sclerostin
T3 sequence (looked up): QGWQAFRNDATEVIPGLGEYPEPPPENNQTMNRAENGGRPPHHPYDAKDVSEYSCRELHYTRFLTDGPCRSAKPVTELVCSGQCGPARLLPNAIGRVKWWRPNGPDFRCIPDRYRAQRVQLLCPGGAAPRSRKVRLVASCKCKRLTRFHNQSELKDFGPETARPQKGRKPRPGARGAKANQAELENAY

[6] = molecular target: T4, recombinant rat sclerostin (rat, UniProt Q99P67 24-213, limits assumed); test: SPR
T4 sequence (looked up): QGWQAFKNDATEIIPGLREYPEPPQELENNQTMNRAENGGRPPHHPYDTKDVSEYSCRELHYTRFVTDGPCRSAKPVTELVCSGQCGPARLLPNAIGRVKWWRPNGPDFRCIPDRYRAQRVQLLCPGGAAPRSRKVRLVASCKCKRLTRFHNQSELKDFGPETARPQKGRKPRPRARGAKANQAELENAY

[7] = molecular target: Rhesus/cynoTNFa (Rhesus/cyno); test: cell-based or functional assay
Rhesus/cynoTNFa (Rhesus/cyno), sequence (P48094 whole entry): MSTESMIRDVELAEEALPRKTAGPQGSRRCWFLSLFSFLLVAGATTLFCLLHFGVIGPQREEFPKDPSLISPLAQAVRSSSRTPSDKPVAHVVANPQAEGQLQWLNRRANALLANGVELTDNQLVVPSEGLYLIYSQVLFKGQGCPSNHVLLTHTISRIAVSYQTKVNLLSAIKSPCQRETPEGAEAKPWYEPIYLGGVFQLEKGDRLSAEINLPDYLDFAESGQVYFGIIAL

[8] = molecular target: T1, recombinant human sclerostin; test: SPR; remark: listed apart in the source
Description: as §1, with “The binding of antibodies or anti-sclerostin-TNF DVD to purified recombinant human, cynomolgus monkey (cyno), rat and mouse sclerostin and TNFα was determined by surface plasmon resonance-based measurements with a Biacore T100 or T200 instruments (GE Healthcare Life Sciences, Piscataway, N.J., USA) using running HBS-EP+ (10 mM HEPES [pH 7.4], 150 mM NaCl, 3 mM EDTA, and 0.005% surfactant P20) containing additional 150 mM NaCl, and/or 10 mg/ml carboxymethyl dextran, 0.1 mg/ml BSA at 25° C. All chemicals were obtained from GE Healthcare Life Sciences, Piscataway, N.J., USA or otherwise from a different source as described in the text. Approximately” for “Approximately”, “μl/min.” for “μl/min. Instrument appropriate Biaevaluation software, GE Healthcare Life Sciences was used to simultaneously fit association and dissociation constants as well as KD (using 1:1 global fit analysis with local Rₘₐₓ). Binding was recorded as a function of time and kinetic rate constants are calculated. In this assay, on-rates as fast as 10⁷ M⁻¹ s⁻¹ and off-rates as slow as 10⁻⁶ s⁻¹ can be measured.”

[9] = molecular target: T5, recombinant human TNF-α (human, UniProt P01375 77-233); test: cell-based or functional assay
T5 sequence (P01375 77-233 limits assumed): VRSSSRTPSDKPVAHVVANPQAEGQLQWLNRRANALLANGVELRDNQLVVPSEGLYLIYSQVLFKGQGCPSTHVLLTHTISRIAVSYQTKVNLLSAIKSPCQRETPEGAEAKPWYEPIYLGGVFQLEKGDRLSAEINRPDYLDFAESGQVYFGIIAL

[10] = molecular target: T5, recombinant human TNF-α; test: SPR
Description: as §1, with “The binding of antibodies or anti-sclerostin-TNF DVD to purified recombinant human, cynomolgus monkey (cyno), rat and mouse sclerostin and TNFα was determined by surface plasmon resonance-based measurements with a Biacore T100 or T200 instruments (GE Healthcare Life Sciences, Piscataway, N.J., USA) using running HBS-EP+ (10 mM HEPES [pH 7.4], 150 mM NaCl, 3 mM EDTA, and 0.005% surfactant P20) containing additional 150 mM NaCl, and/or 10 mg/ml carboxymethyl dextran, 0.1 mg/ml BSA at 25° C. All chemicals were obtained from GE Healthcare Life Sciences, Piscataway, N.J., USA or otherwise from a different source as described in the text. Approximately” for “Approximately”, “μl/min.” for “μl/min. Instrument appropriate Biaevaluation software, GE Healthcare Life Sciences was used to simultaneously fit association and dissociation constants as well as KD (using 1:1 global fit analysis with local Rₘₐₓ). Binding was recorded as a function of time and kinetic rate constants are calculated. In this assay, on-rates as fast as 10⁷ M⁻¹ s⁻¹ and off-rates as slow as 10⁻⁶ s⁻¹ can be measured.”

[11] = molecular target: T2, recombinant cynomolgus monkey sclerostin; test: SPR; remark: listed apart in the source
Description: as §1, with “The binding of antibodies or anti-sclerostin-TNF DVD to purified recombinant human, cynomolgus monkey (cyno), rat and mouse sclerostin and TNFα was determined by surface plasmon resonance-based measurements with a Biacore T100 or T200 instruments (GE Healthcare Life Sciences, Piscataway, N.J., USA) using running HBS-EP+ (10 mM HEPES [pH 7.4], 150 mM NaCl, 3 mM EDTA, and 0.005% surfactant P20) containing additional 150 mM NaCl, and/or 10 mg/ml carboxymethyl dextran, 0.1 mg/ml BSA at 25° C. All chemicals were obtained from GE Healthcare Life Sciences, Piscataway, N.J., USA or otherwise from a different source as described in the text. Approximately” for “Approximately”, “μl/min.” for “μl/min. Instrument appropriate Biaevaluation software, GE Healthcare Life Sciences was used to simultaneously fit association and dissociation constants as well as KD (using 1:1 global fit analysis with local Rₘₐₓ). Binding was recorded as a function of time and kinetic rate constants are calculated. In this assay, on-rates as fast as 10⁷ M⁻¹ s⁻¹ and off-rates as slow as 10⁻⁶ s⁻¹ can be measured.”

B2: MSL10 (antibody, V domains shown)
VH: EVQLVESGGGLVQPGGSLRLSCTASGFTFDDYALHWVRQAPGKGLEWVSGISWHGDFIDYADSVKGRFTISRDNSKNTLYLQMNGLRVEDMAIYYCAGNNRGYGGLDVWGQGTTVTVSS
VL: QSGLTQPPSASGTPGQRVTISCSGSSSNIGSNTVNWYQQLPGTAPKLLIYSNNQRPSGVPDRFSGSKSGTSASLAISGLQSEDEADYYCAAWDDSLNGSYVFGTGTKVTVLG
notes: fully human mAb
EC50 [2]: 0.427 nM

B4: AE10-6 AM7-GS-MAK195-21 (bispecific antibody, human IgG1, kappa, L234A L235A)
heavy: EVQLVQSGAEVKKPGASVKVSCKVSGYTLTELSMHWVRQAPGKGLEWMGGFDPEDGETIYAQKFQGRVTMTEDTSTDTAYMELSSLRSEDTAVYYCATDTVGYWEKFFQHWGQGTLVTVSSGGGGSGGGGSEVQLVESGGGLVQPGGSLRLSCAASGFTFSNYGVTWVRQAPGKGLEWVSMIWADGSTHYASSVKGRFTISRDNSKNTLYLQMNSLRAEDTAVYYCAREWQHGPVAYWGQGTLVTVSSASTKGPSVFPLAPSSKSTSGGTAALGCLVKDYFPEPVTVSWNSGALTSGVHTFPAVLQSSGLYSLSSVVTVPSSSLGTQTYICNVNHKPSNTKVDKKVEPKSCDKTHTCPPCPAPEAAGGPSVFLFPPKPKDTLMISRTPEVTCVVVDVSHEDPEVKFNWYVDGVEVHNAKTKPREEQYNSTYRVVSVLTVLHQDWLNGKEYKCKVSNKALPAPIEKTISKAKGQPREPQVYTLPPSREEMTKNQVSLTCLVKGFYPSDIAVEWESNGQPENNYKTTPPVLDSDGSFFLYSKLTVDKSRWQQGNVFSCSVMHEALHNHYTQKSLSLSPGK
light: QAVVTQEPSLTVSPGGTVTLTCGSSTGTVTIDHYPYWFQQKPGQAPRTLISDTDDKHSWTPARFSGSLLGGKAALTLSGAQPEDEAEYYCLLDYGGRFVFGGGTKLTVLGGGSGGGGSGDIQMTQSPSSLSASVGDRVTITCRASQLVSSAVAWYQQKPGKAPKLLIYWASARHTGVPSRFSGSGSGTDFTLTISSLQPEDFATYYCQQHYKTPFTFGQGTKLEIKRTVAAPSVFIFPPSDEQLKSGTASVVCLLNNFYPREAKVQWKVDNALQSGNSQESVTEQDSKDSTYSLSSTLTLSKADYEKHKVYACEVTHQGLSSPVTKSFNRGEC
notes: DVD-Ig: outer AE10-6 AM7, inner MAK195-21
L929 TNF neutralization IC50 [7]: > 2 nM
Kd [8]: < 0.00015 nM
koff [8]: < 1e-06 s⁻¹
kon [8]: 6.8e+06 M⁻¹ s⁻¹

B5: MSL9-8 (antibody, V domains shown)
VH: EVQLVESGGGLVQPGGSLRLSCAASGFRFTDYWMTWVRQAPGKGPEWVANINEDGSKKHYADSVKDRFIISRDNAKKSLSLQMKRMRAEDTAVYYCAADLNPHWLVGWGQGTLVTVSS
VL: QPVLTQPPSVSVAPGKTARITCGGNNIGSRRVHWYQQKPGQAPVLVVYDDNDRPSGIPERFSGSKSGNTATLTISRVEAGDEADYYCQVWHSGRVFGTGTKVTVLG
notes: fully human mAb
EC50 [2]: 12.3 nM

B7: MAK199-1-GS-AE10-6 AM7 QL (bispecific antibody, human IgG1, lambda, L234A L235A)
heavy: EVQLVQSGAEVKKPGASVKVSCKASGYTFANYGIIWVRQAPGQGLEWMGWINTYTGKPTYAQKFQGRVTMTTDTSTSTAYMELSSLRSEDTAVYYCARKLFTTMDVTDNAMDYWGQGTTVTVSSGGGGSGGGGSEVQLVQSGAEVKKPGASVKVSCKVSGYTLTELSMHWVRQAPGKGLEWMGGFDPEDGETIYAQKFQGRVTMTEDTSTDTAYMELSSLRSEDTAVYYCATDTVGYWEKFFQHWGQGTLVTVSSASTKGPSVFPLAPSSKSTSGGTAALGCLVKDYFPEPVTVSWNSGALTSGVHTFPAVLQSSGLYSLSSVVTVPSSSLGTQTYICNVNHKPSNTKVDKKVEPKSCDKTHTCPPCPAPEAAGGPSVFLFPPKPKDQLMISRTPEVTCVVVDVSHEDPEVKFNWYVDGVEVHNAKTKPREEQYNSTYRVVSVLTVLHQDWLNGKEYKCKVSNKALPAPIEKTISKAKGQPREPQVYTLPPSREEMTKNQVSLTCLVKGFYPSDIAVEWESNGQPENNYKTTPPVLDSDGSFFLYSKLTVDKSRWQQGNVFSCSVLHEALHNHYTQKSLSLSPGK
light: DIQMTQSPSSLSASVGDRVTITCRASQDISQYLNWYQQKPGKAPKLLIYYTSRLQSGVPSRFSGSGSGTDFTLTISSLQPEDFATYFCQQGNTWPPTFGQGTKLEIKRGGSGGGGSGQAVVTQEPSLTVSPGGTVTLTCGSSTGTVTIDHYPYWFQQKPGQAPRTLISDTDDKHSWTPARFSGSLLGGKAALTLSGAQPEDEAEYYCLLDYGGRFVFGGGTKLTVLGQPKAAPSVTLFPPSSEELQANKATLVCLISDFYPGAVTVAWKADSSPVKAGVETTTPSKQSNNKYAASSYLSLTPEQWKSHRSYSCQVTHEGSTVEKTVAPTECS
notes: DVD-Ig with CH QL
L929 TNF neutralization IC50 with 50 nM SOST [9]: 0.032 nM
L929 TNF neutralization IC50 without 50 nM SOST [9]: 0.033 nM
Kd [10]: 0.007 nM
koff [10]: 3e-05 s⁻¹
kon [10]: 4.2e+06 M⁻¹ s⁻¹
Kd [11]: < 0.0001 nM
koff [11]: < 1e-06 s⁻¹
kon [11]: 9.9e+06 M⁻¹ s⁻¹
Kd [8]: < 0.00016 nM
koff [8]: < 1e-06 s⁻¹
kon [8]: 6.1e+06 M⁻¹ s⁻¹

Continued, values first:

binding result [1]: binds
B1: MSK13 (antibody, V domains shown)
VH: EMQLVQSGAEVKKPGASVKVSCKASGYTFSGYYMNWVRQAPGQGLEWMGWINPYSGAATYAQDFQGRITVTRDTSISTGYMELTRLTSTDTAVYYCARGGTITGASWYFDVWGRGTLVTVSS
VL: DIVMTQTPLSLPVTLGQPASISCRSSQSLVHSDGNTYLNWFQQRPGQSPRRLIYKVSNRDSGVPDRFSGSGSGTDFTLKISRVEAEDVGVYYCMQGTHWPQLTFGGGTKVEIKR
notes: fully human mAb

Kd [3]: 0.36 nM
koff [3]: 0.0001 s⁻¹
kon [3]: 300000 M⁻¹ s⁻¹
Kd [4]: 0.9 nM
koff [4]: 0.00025 s⁻¹
kon [4]: 280000 M⁻¹ s⁻¹
binding result [5]: no binding
binding result [6]: no binding
B3: MSL10-AM3.2 (antibody, V domains shown)
VH: EVQLVESGGGLVQPGRSLRLSCAASGFTFDDYALHWVRQAPGKGLEWVSGIGWDEDMIDYADSVKGRFTISRDNAKNSLYLQMNSLRVEDTALYYCAGNNRGYGGLDVWGQGTTVTVSS
VL: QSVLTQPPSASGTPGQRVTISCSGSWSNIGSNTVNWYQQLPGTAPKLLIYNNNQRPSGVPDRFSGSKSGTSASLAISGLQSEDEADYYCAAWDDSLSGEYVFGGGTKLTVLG

binding result [1]: binds
B6: MSK9 (antibody, V domains shown)
VH: B5 VH with V5L, R28T, T30R, D31S, T35S, P45L, N50S, N52K, E53Q
VL: DIVMTQTPLSLPVTPGEPASISCRSSQSLLHSNGYNYLDWYLQKPGQSPQLLIYLGSKRASGVPDRFSGSGSGTDFTLKISRVGAEDVGVYYCMQGLQTPKAFGPGTKVDIKR
notes: fully human mAb

binding result [1]: binds
B8: MSK21 (antibody, V domains shown)
VH: EVQLQQSGPGLVKPSQTLSLTCAISGDSVSSNIVAWNWIRQSPSRGLEWLGRTYYTSKWFNQYAMSVKSRITINPDTSKNQVSLKLSSVTAADTAAYYCARVGGTYDFWSGYYRPYYYGMDVWGQGTMVTVSS
VL: DIRLTQSPSSLSASIGDTVTISCRSSQPINTHLNWFRQLPGRAPELLIYGSSSLHTGVPSRFSGSGSGTDFTLTITSLQRGDFLTYYCQQTHRLPITFGQGTRLDIKR
notes: fully human mAb

EC50 [2]: 0.778 nM
B9: MSL17 (antibody, V domains shown)
VH: EVQLLESGGGLVKPGRSLRLSCVAYGFSLTGYSMNWVRQAPGKGLEWVSSISPNDTYRHYADSVKGRFTISRDNAKNSLYLQMNSLRAEDTAVYYCARDTNYRDSGGYFYDVFDIWGQGTMVTVSS
VL: SYELTQPPSVSVAPGETARVTCEGNNIGNKGVHWYQQKPGQAPVLVVYDDSDRPSGIPERFSGSNSGNTATLTISRVEAGDDADYYCQVWDSSSDVFGSGTKVTVLG
notes: fully human mAb
